Experiment: yeast display, Sf9 membrane polyspecificity reagent, FACS + sequencing; frameworks hold sequencing errors
Method in brief: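 In a synthetic yeast display library (Saccharomyces cerevisiae BJ5465), nanobody expression was induced with galactose for 36–48 hours. FACS gates were set low and high (top ~1%) using anti-HA fluorescence for expression and streptavidin fluorescence for binding of the Sf9 membrane reagent. Each polyreactivity label is drawn from the gate of origin.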

Sequence | polyreactivity (PSR sort gate)
QVQLVESRGGLVQAGGSLRLSCAASGSTFRIKAMGWYRQAPGNERELFAAIRASGTSTYYADSVKGRFTISRDNGQNTVYLLMIRLKPEDTAVDYCAASAQQPVLGLSYYYWGQGTQVTVSS | high polyreactivity
QVQLVESRGGLVQAGGSLRLSCAASGSTLYLYALGWYRQAPGKERELVAAISQSGTRTYYADSVKGRFTISRDNAKNTVYLQMNSQKPEDTAVSYCAAGRYQPYSYDYWGQGTQVTVSS | high polyreactivity
QVQLVESRGGLVQAGGSLRLSCAASGYTFDANAMGWYRQAPGKERELVASISSISDSTDYADSVKGRFTISRDNAKNTVYLQMNSLKPVDTAVYYCARSDVKPGRQERDYWGQGTQVTVSS | low polyreactivity
QVQLVESRGGLVQAGGSLRLSCACSGGIFVKSAMGCYRKAPCKERELVAAISKRGGRTYYADSVKGRFTISRDNAKNTVYLQMNSLKPEDTAVYYCYADVGVEYDYWGQGTQVTVSS | high polyreactivity
QVQLVESRGGLVQAGGSLRLSCPASGLIYVAYAMGWYRQAPGKERELVAAISRNGGSTYYADSVKGRFTISRDNAKNTVYLQMNSLKPEDTAVYYCAARYAYYTARYTQVKGLDYWGQGTQVTVSS | high polyreactivity
QVQLVESRGGLVQAGGSLRLTCAASGFIFKGYAMGWYRQEPGTERELVAAISYSGGNTYYADSVKGRFTISRDNAKNTVYLQMNSLKPEDTAVYYCAVRKRKVLGMYYWGQGTQVTVSS | high polyreactivity
QVQLVESRGVLVQAGGSLRLSCAASGRTFYYYAMGWYRQAPRKERELVAAINTRRTSTYYADSVKGRFTISRDNAKKTVYLQMNSLKPEDTAVYYCAVDPYGDSWEDWFRNYYYGYDYWGQGTQVTVSS | low polyreactivity
QVQLVESSGGLVQAGGSLRLSCAASGFIFPLYTMGWYRQAPAKERELVAAISVTGGSTYYADSVKGRFTISRDNAKNTVYLQMNSLKPEDTAVYYCNAYLFFLNRVCSFDYWGQGTQVTVSS | high polyreactivity
QVQLVESSGGLVQAGGSLRLSCAASGFSFKRYAMGWYRQAPGTERELVAAINSGGSTNYADSVKGRFTMSRDNAKNTVYLQMNSLKPEDTAVYSCAASTPQYQYYYWGQGTQVTVSS | high polyreactivity
QVQLVESSGGLVQAGGSLRLSCAASGLTFDGYAMGWYRQAPGKEREIVAAITQSGGSTYYADSVKGRFTISRDNAKNTVYLQMNSLKPVDTAVYYCAADGVLIHISYFRVVDGGEDHWGQGTQVNVSS | low polyreactivity
QVQLVESSGGLVQAGGSLRLSCAASGRTFTSNAMGWYRQAPGKERELVAAISNGGSTYYADSVKGRFTISRDNAKNTVYLQMNSLKPEDTAVYYCAAQYRVLWYSYYYWGQGTQVTVSS | high polyreactivity
QVQLVESSGGLVQAGGSLRLSCSASGRTFVWYDMGWYRQAPGKERELVAAITKRGTSTYYADSVKGRFTISRDNAKNTVYLQMNSLKPEDTAVYYCAVEYIYWFHCRSSFIYDYWGQGTQVTVSS | low polyreactivity
QVQLVESSGGLVQAGGSLRLTCAASGSTFTIYAIGWYRQAPRKERELVAVISSSGGSTYYADSVMGRFTISRDNAKNTVYLQMNSLKPEDTAVYYCAADTRYVGGYLTLYYWGQGTQVTVSS | low polyreactivity
QVQLVESVGCLVQAGGSLRLSCAASGSTFDYYAMGWYRQAPGKERELVAAITSTGRTYYADSVKGRFTISRDNAKNTVYLQMNSLKPEDTAVYYCAADLPWGPLFDYWGQGTQVTVSS | low polyreactivity
QVQLVESVGCLVQAGGSLRLSCASTGRTFTPYAMGWYRHRPGKESEFVPAIDTSGGSTYADSVKGRFTISRDNANNTVYLQMNSLKPEDTAVYYCATRGFYSWSYWYLWEYDYWGQGTQVTVSS | low polyreactivity
QVQLVESVGCLVQAGGTLRLSCAATGRIFADYAMGWYRQAPGKERELVATITSGDRTYYADSVKGRFTTSRDNAKNTVYLQMNSLKPEDTAVYYCAAYKPWYVGLYPWYDYWGQGTQVTVSS | low polyreactivity
QVQLVESVGGLDQAGGSLPLSCAASGSTLAVYDMGWSRQAPGKESELVAAISTTGGRTYYADSVKGRFTISRDNSKNTVYLQMNRLKPEDTAVYYCNADAEDVIYYEYDYCGQGTQVTVSS | low polyreactivity
QVQLVESVGGLDQAGGSLRLSCAASGFTFYTNAMGWYRQAPGKEREFVAAISWSGTGTYYADSVKGRFTISRDNAKNTVYLQMYSLIPDDTAVYYCAARDRWRGGRKFDYWGQGTQVTVSS | high polyreactivity
QVQLVESVGGLLQAGGSLRLSCAASGSTFYNYAMGWYRQAPGKERELVAAIRNGGGTNYADSVKGRFTISRDNAKNTVYLQMNSLKPEDTAVYYCSTRLDWRRTYGYWGQGTQVTVSS | low polyreactivity
QVQLVESVGGLVHAGGSLRLSCAASGSIFTKNAMGWYRHAPGKERELVAAITGSGGSTYYADSVKGRFTISRDNAKNTVYLQMNSLKPEDTALYYCAANFVFWSGAVYTRYDYWGQGTQVTVSS | high polyreactivity
QVQLVESVGGLVQAGGRLRLSCAASGITFYSYTMGWYRQAPGKERELVAAISDNGGRTFYADSVKGRFTISRDNAKNTVYLQMNSLKPEDTAVYYCAASRRRAVDYWGQGTQVTVSS | low polyreactivity
QVQLVESVGGLVQAGGSLLLSCAAYGDISRYNTMGWYRQAPGKERELVPAITWSGGSTYADSVKGRFTISRDNAKNTVYLQMNSLKPEDTAVYYCAAGAYIWDNYSYRWYDYLGQGTQVTVSS | high polyreactivity

Sequence | polyreactivity (PSR sort gate)
QVQLVESVGGLVQAGGSLRISCAASGRIFTHNVMGWYRQAPGKERELVAAISASGGSTYYADSVKGRFTISRDNAKNTVYLQMNSLKPEDTAVYYCNAGDYRTFYRRFDYWGQGTQVTVSS | low polyreactivity
QVQLVESVGGLVQAGGSLRLICAASGSIFLDNAKGCYRQAPVKERELVSAISWGGGSTYYADSVKGRFTISRDNAKNTVYVQMNSLKPEDTAVYYCAAESYYYIRYFDYSRWMGYWGQGTQVTVSS | low polyreactivity
QVQLVESVGGLVQAGGSLRLICACSGLNFVSYAMGWYRQAPGKERELVAAINSRGSRTYYADSVKGRLTISRDNAKNTVYLQMNSLKPEDTALYYCAAGVIRYGGKEEYYYWGQGTQVTVSS | high polyreactivity
QVQLVESVGGLVQAGGSLRLSCAASGFILAVYVLGWYRQAPGKERELVAAISWSGGSTYYADSLKGRFTISRDNAKNTVYFKMNRLKPEYTAVYSCNTVAKSPVKYDYWGQGTQVTVSS | high polyreactivity
QVQLVESVGGLVQAGGSLRLSCAASGFTFRKYAMGWYRQAPGKERELVAGISWSGGTTYYADSVKGRFTISRDNAKNTVYLQMNSLKPEDTAVYYCNAKRVQVFAGYSYDYWGQGTQVTVSS | high polyreactivity
QVQLVESVGGLVQAGGSLRLSCAASGFTFSPNARGSYRQAPGKERELVAAIDWSGDRTYYADSVKGRFTISRDNAKNTVYLQMNILKPEDTAVYYCKVVRRSPGDYSYYYWGQGTQVTVSS | low polyreactivity
QVQLVESVGGLVQAGGSLRLSCAASGFTFSTNAMGWYRQAPGKERELVAAISRGGSTNYADSVKGRFTISRDNAKNTVYLQMNSLKPEDTAVYYCNAYLSPDEEEYYWGQGTQVTVSS | low polyreactivity
QVQLVESVGGLVQAGGSLRLSCAASGGTFGYNAMGWYRQAPGKERELVAAIRVNGGSTYYADSVKGRFTISRDNAKNTVYLQMNSLKPEDTAVYYCAAESRVYRTSYWYGYWGQGTQVTVSS | high polyreactivity
QVQLVESVGGLVQAGGSLRLSCAASGIIFSYYAMGWYRQPPGKERELVAVISSGGGSTYYADSVKGRFTISRDNAKNTVYLQMNSLKPDDTAVYYCNADRVDRELFTFDYWGQGTQVTVSS | high polyreactivity
QVQLVESVGGLVQAGGSLRLSCAASGIIFWLSTMGWYRQAPGKERELVAAITSGGSTYYADSVKGRLTISRDNAKNTVYLQMNSLKQEDTALYYCAAVPRYRRWKYDYWGQGTQVTVSS | high polyreactivity
QVQLVESVGGLVQAGGSLRLSCAASGITFYSYDMGWYRQAPGKERELVAAITYRGGSTYYADSVKGRFTISRDNAKNTVYLQMNSLKPEDTAVYYCNADLLPADAPLWVTGGDYWGQGTQVTVSS | low polyreactivity
QVQLVESVGGLVQAGGSLRLSCAASGLIFAYYAMGWYRQAPGKERELVAAISWTGGSTYYADSVKGRFTISRDNAKNTVYLQMNSLKPEDTAVYYCNTVGKPGFYSWGQGTQVTVSS | high polyreactivity
QVQLVESVGGLVQAGGSLRLSCAASGLTFGGNAMGRYRQAPGKVRELVAAISGSGGRTYYADSVKGRFTISRDNAKNTVYLQMNSLKPEDTAVYYCNAATKRRTSDYWGQGTQVTVSS | high polyreactivity
QVQLVESVGGLVQAGGSLRLSCAASGLTFGSYAMGWYRQAPGTDRELVAGINQSGGSTYYADSVKGRFTISRDNAKNTVSFQMNSLNPEDTAVYYCNAEAWVSQDWWQWVAYVYWGQGTQVTVSS | high polyreactivity
QVQLVESVGGLVQAGGSLRLSCAASGNIFRGYTMGWYRQAPGKESELVATITWTGVSTFYADSVKGRFTISRDNAKNTVYLQMNSLKPEDTAVYYCAAYYPSHDYSGFWSDTYEYWGQGTQVTVSS | low polyreactivity
QVQLVESVGGLVQAGGSLRLSCAASGRIFDRYAMGWYRQAPGKERELVAAISSSGGSTYYADSVKGRFTISRDNAKNTVYLQMNSLKPEDTAVYYCAAPRSRSRTSRFDYWGQGTQVTVSS | high polyreactivity
QVQLVESVGGLVQAGGSLRLSCAASGRIFQYYAMGWYRQAPGKERELVAAITRSGGRTYYADSVKGRFTISRDNAKNTVYLQMNSLKPEDTAVYYCAARDWYYTMYYWGQGTQVTVSS | high polyreactivity
QVQLVESVGGLVQAGGSLRLSCAASGRIFSYNAMGWYRQAPGKERELVAAITWRGGNTYYADSVKGRFTISRDNAKNTVYLQMNSLKPEDTAVYYCNAVGYSKYYVRTGREFDYWGQGTQVTVSS | high polyreactivity
QVQLVESVGGLVQAGGSLRLSCAASGRIFYFNGMGWYRQAPGKERELVAAITISTGSTYYADSVKGRFTISRDNAKNTVYLQMNSLKPEDTAVYYCNVEFEYSGWKSFDYWGQGTQVTVSS | low polyreactivity
QVQLVESVGGLVQAGGSLRLSCAASGRTFAQNALGWYRQAPGKERELVAAIRSGGRTNYADSVKGRFTISRDNAKNTVYLQMNSLKPEDTAVYYCAAEWGYWSFYLGRAKVEYWGQGTQVTVSS | low polyreactivity
QVQLVESVGGLVQAGGSLRLSCAASGRTFAYYAMGWYRQAPGKERELVAAISYRGGTTYYADSVKGRFTISRDNSKNTVYLQMYILKQEDTAVYYCAAKVGVSWYGYWGKGTQVTVSS | high polyreactivity
